Test results as given in patent US20260258115A1 (MAPP BIOPHARMACEUTICAL, published 2026).
Substitutions are numbered along the chain they refer to.

B1: ADI-14412 (antibody, V domains shown)
VH: QVQLVQSGAEVKKPGASVKVSCKASGYTFTRYGISWVRQAPGQGLEWMGWISDYNGNTKNAEKFQGRVTMTTDTYTNIAYMELRSLRSDDTAVYYCARDWWITVGGIIAPFDYWGQGTLVTVSS
VL: ETTLTQSPGTLSLSPGERATLSCRASQSVSSDYLAWFQQKPGQAPRLLIYGASSRATDIPDRFSGSGSGTDFTLTISRLESEDFAVYYCLHYAGARTFGQGTKVEIK
notes: also called Ab 78
B2: ADI-14403 (antibody, V domains shown)
VH: QVQLVESGGGLGKPGGSLRLSCAASGFTFSGYYMSWIRQAPGKGLEWVSDISSGSSFTNYADSVKGRFTISRDNAKNSLYLQMNSLKAEDTAVYYCARVPPDSYGSGSYSGDSWGQGTLVTVSS
VL: QSVVTQPPSVSGAPGQRVTISCTGSSSNIGAGYGVHWYQQLPGTAPKLLIYGNTNRPSGVPDRISGSKSGTSASLVITGLQAEDEADYYCQSYDSSLSGWVFGGGTKLTVL
notes: also called Ab 69
B3: ADI-14586 (antibody, V domains shown)
VH: QVQLVQSGGGLVKPGGSLRLSCAASGFTFSDYYMSWIRQAPGKGLEWVSYISSSSSYTNYADSVKGRFTISRDNAKNSLYLQMNSLRAEDTAVYYCAKRTEYCSSTGCAYYFDYWGQGTLVTVSS
VL: B2 VL with G34D, T54S, I64F, V76A, W100S, L108V
B4: ADI-14580 (antibody, V domains shown)
VH: QVQLVQSGAEVKKPGSSVKVSCKASGGTFSSYTINWVRQAPGQGLEWMGRIIPVLGMASYVQNFQGRVSITADESTSTAYMELSSLTSEDTALYYCAKGAVAAANDVFDVWGQGTTVTVSS
VL: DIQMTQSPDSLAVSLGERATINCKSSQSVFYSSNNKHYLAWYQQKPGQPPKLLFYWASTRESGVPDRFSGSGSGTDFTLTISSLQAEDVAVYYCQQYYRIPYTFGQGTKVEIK
B5: ADI-14428 (antibody, V domains shown)
VH: EVQLLESGGGLVKPGGSLRLSCAASGFTFSDHYMSWIRQAPGKGLEWVSYISSTSSFTNYADSLKGRFTISRDNAKNSLYLQMNSLRAEDTAVYYCARPYIVALGTRAFDIWGQGTTVTVSS
VL: SYVLTQPPSVSVAPGKTARITCGGNNIGSKTVHWYQQKPGQAPVLVSYYDSDRPSGIPERFSGSNSGNTATLTISRVEAGDEADYYCQVWDGSSEHYVFGTGTKVTVL
notes: also called Ab 94
B6: ADI-14581 (antibody, V domains shown)
VH: QVQLVQSGAEVKKPGSSVKVSCKASGGTFSSHAFSWVRQAPGQGLEWMGGIIPSLNTANYAQKFQGRVSITADESTGTAYMELSSLRSDDTAVYFCAREVFGYGYYFDYWGQGTLVTVSS
VL: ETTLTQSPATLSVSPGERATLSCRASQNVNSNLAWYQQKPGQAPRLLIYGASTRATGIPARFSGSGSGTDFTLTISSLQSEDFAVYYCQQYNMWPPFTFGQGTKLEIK
notes: also called Ab 110
B7: ADI-14424 (antibody, V domains shown)
VH: QVQLVQSGAEVKKPGESLKISCKGPDSSFSVYWIAWVRQMPGKGLEWMGVIYVGDSDTRYSPSFRGQVTISADKSMNTAYLQWSSLKASDTAMYFCARHIPPGPFDLWGQGTMVTVSS
VL: NFMLTQPHSVSASPGKTITISCTRSSGSIASNSVQWYQQRPGSAPTNVIYEDDQRPLGVPNRFSGSIDSSSNSASLTISGLKTEDEADYYCHSYHNSDQVFGGGTKLTVL
notes: also called Ab 90
B8: ADI-14582 (antibody, V domains shown)
VH: B7 VH with M76I, M113T
VL: B7 VL with D53N, H92Q, N96S, L107V
B9: ADI-14402 (antibody, V domains shown)
VH: QVQLVQSGAEVKKPGASVKVSCKTSGYTFTNYGISWVRQAPGQGLEWMGWISAYNGNRNYAQKLQGRVTMTTDTSTSTAYMELRSLRSDDTAVYYCAREPPVIAAGDFSHWGQGTLVTVSS
VL: EIVLTQSPLSLPVTLGQPASISCRSSQSLVHSDANTYLSWFQQRPGQSPRRLIYKVSNRDSGVPDRFSGSGSGTDFTLKISRVEAEDVGVYYCMQGTHWPPDFGQGTRLEIK
notes: also called Ab 68
B10: ADI-14583 (antibody, V domains shown)
VH: B9 VH with K13E, T24A, M48L, R58I, N59H, L64V, A79G, Y80F, S109Q
VL: B9 VL with I2T, V3T, D33N, A34G, K55R, V90L
B11: ADI-14585 (antibody, V domains shown)
VH: B9 VH with T24A, T30A, S35G, N57K, R58T, L64F, S109P
VL: B9 VL with I2T, V3T, V30E, A34L, K79R
B12: ADI-14363 (antibody, V domains shown)
VH: QVQLVESGGGLVKPGGSLRLSCAASGFTFSDYYMSWIRQAPGKGLEWVSYISGGGTYTKYADSVKGRFTISRDNAKNSVYLQMNSLRAEDTAVYYCARDVALVGWELRYGMDVWGQGTTVTVSS
VL: ETTLTQSPGTLSLSPGERATLSCRARENVNSSYLAWYQQKPGQAPRLLIYGASSRATGIPDRFSGSGSGTDFTLTISRLEPEDFAVYYCQQYAISPWTFGQGTKVEIK
notes: full-length IgG; also called Ab 31
B13: ADI-24841 (antibody, V domains shown)
VH: QVQLVQSGAEVKKPGASVKVSCKASGYTFTSYAMHWVRQAPGQRLEWMGWINAGNGNTKYSQKFQGRVTITRDTSASTAYMELSSLRSEDTAVYYCARDGFPTNYDFWSGYSDDAFDIWGQGTMVTVSS
VL: not shown
notes: full-length IgG
B14: ADI-25518 (antibody, V domains shown)
VH: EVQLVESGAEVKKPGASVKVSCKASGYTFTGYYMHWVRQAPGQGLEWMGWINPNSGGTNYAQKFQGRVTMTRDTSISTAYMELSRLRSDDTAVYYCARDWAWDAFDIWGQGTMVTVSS
VL: QSVLIQPASVSGSPGQSITISCTGTSSDVGGYNYVSWYQQHPGKAPKLMIYDVSNRPSGVSNRFSGSKSGNTASLTISGLQAEDEADYYCSSYTSSSTLVFGGGTQLTVL
notes: full-length IgG
B15: ADI-24798 (antibody, V domains shown)
VH: EVQLLESGPGLVKPSETLSLTCTVSGGSISSYYWSWIRQPPGKGLEWIGYIYYSGSTNYNPSLKSRVTISVDTSKNQFSLKLSSVTAADTAVYYCARILGHCSGGSCYRIIDYWGQGTLVTVSS
VL: not shown
notes: full-length IgG
B16: ADI-25491 (antibody, V domains shown)
VH: EVQLLESGPGLVKPSQTLSLTCTVSGGSISSGGYYWSWIRQHPGKGLEWIGYIYYSGSTYYNPSLKSRVTISVDTSKNQFSLKLSSVTAADTAVYYCAREVVPAAIRAGYYFDYWGQGTLVTVSS
VL: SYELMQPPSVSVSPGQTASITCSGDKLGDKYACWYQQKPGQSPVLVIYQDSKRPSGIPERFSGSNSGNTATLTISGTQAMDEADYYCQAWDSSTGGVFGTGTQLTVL
notes: full-length IgG
B17: ADI-14380 (antibody, V domains shown)
VH: QVQLVQSGAEVKKPGESLKISCKGSGYTFTSYWIGWVRQLPGKGLEWMGVIFPGDSDTRYSPSFQGQVTISADKSISTAYLQWSSLKAADTAMYYCARTRLGRGFYRFDSWGQGTLVTVSS
VL: QSVLTQPPSVSAAPGQKVTISCSGSSSNIGNNYVSWYQQLPGTAPRLLIYENNERPSGIPDRFSGSKSGTSATLGITGLQTGDEADYYCATWDSGLSAGYVFGTGTKLTVL
notes: full-length IgG; also called Ab 48
B18: ADI-22756 (antibody, V domains shown)
VH: EVQLLESGGGVVQPGRSLRLSCVASGFTFSTYGVHWVRQAPGKGLEWVAVISYDGANKDYADSVKGRFTISRDNSKNTLYLQMNSLRAEDTAVYYCAKMITRVLPGGFDRWGQGTLVTVSS
VL: EIVMTQSPGTLSLSPGERATLSCRASQSVSSAYLAWYQQKPGQAPRLLIYDASRRATGIPDRFSGSGSGTDFTLTISRLEPEDFAVYYCQQYGSSRFTFGQGTKVEIK
notes: full-length IgG
B19: ADI-24854 (antibody, V domains shown)
VH: EVQLVESGGGLVKPGGSLRLSCAASGFTFSSYSMNWVRQAPGKGLEWVSSISSSSSYIYYADSVKGRFTISRDNAKNSLYLQMNSLRAEDTAVYYCARDRRFGELFYFDYWGQGTLVTVSS
VL: QSVLTQPPSVSGAPGQRVTISCTGSSSNIGAGYDVHWYQQLPGTAPKLLIYGNSNRPSGVPDRFSGSKSGTSASLAITGLQAEDEADYYCQSYDSSLSGNWVFGGGTKLTVL
notes: full-length IgG

Each binder was assayed against RSV prefusion F (preF), subtype B (respiratory syncytial virus, subtype B) (assay: BLI, IgG).

| Binder | Kd [nM] |
| --- | --- |
| B1 | 13.4 |
| B2 | 0.699 |
| B3 | 6.7 |
| B4 | 4.54 |
| B5 | 14.1 |
| B6 | 2.88 |
| B7 | 1.9 |
| B8 | 1.81 |
| B9 | 0.416 |
| B10 | 1.59 |
| B11 | 0.449 |

The binders below were run against T1, RSV prefusion F (preF), subtype B (respiratory syncytial virus subtype B) (assay: BLI, IgG).
T1 construct: also called Prefusion subtype B

| Binder | Kd [nM] |
| --- | --- |
| B12 | 5.35 |
| B13 | 26.6 |
| B14 | 39.5 |
| B15 | 5.27 |
| B16 | 21.9 |
| B17 | 10.8 |
| B18 | 55.8 |
| B19 | 30.3 |
